# Entries after “also recorded” stand apart in the source; their conditions may differ.
# B1: pp296: Modified PlySs2 lysin, SEQ ID NO: 6: L92W, V104S, V128T, Y137S, Y164K, N184D, S198Q (protein)
# chain: MTTVNEALNNVRAQVGSGVSVGNGECYALASWYERMISPDATVGLGAGVGWVSGAIGDTISAKNIGSSYNWQANGWTVSTSGPFKAGQIVTWGATPGNPYGHVSIVEAVDGDRLTILEQNYGGKRYPTRNYYSAASSRQQVVHYITPPGTVAQSAPNLAGSRSKRETGTMTVTVDALNVRRAPDTSGEIVAVYKRGEQFDYDTAIIDVNGYAWVSYIGGSGKRNYVATGATKDGKRFGNAWGTFK
# Key:
# [1] = Toxicity screening in mice; type: in vivo; conditions: 30 mg/kg
# Method: Selected modified lysin polypeptides from Table 3 were subjected to further testing as described in more detail in subsequent Examples. […] The same 30 mg/kg dose of PlySs2 caused a 100% incidence of adventitial findings, which is an indication of potential toxicity.
# MRSA strain MW2 = test: Serial passage resistance assay; type: cell-based, Staphylococcus aureus
# Method: An analysis of bacterial resistance was performed using MRSA strain MW2 over 18 days of serial passage in the presence of a pp296 dilution series and an antibiotic dilution series in presence and absence of sub-MIC amounts of pp296. Briefly, the broth microdilution MIC format was used in which 2-fold dilutions ranges of pp296 alone or antibiotic in the presence and absence of a fixed sub-MIC amount of pp296 was cultured with bacteria (5×10^5 CFU/ml starting concentration) in MHB for 20 hours at 37° C. The well with the highest concentration of the modified lysin polypeptide in which bacterial growth was seen was then used as the inoculum for the next day's passage, and the process was repeated over a […]. The MIC at each daily time-point was recorded, and resistance was measured as a step-wise increase in MIC. […] The results are depicted graphically in FIGS. 3A-3C.
molecule,measurement,setting,value
B1,Adventitial findings (lesions),[1],no adventitial findings; also recorded: did not result in adventitial lesions
same,Increase in MIC of DAP or VAN / appearance of antibiotic resistance,MRSA strain MW2; antibiotic plus fixed sub-MIC amount of lysin,no or very little increase; also recorded: suppressed the appearance of daptomycin and vancomycin resistance
same,Resistance to the lysin (increase in MIC on serial passage),"MRSA strain MW2; lysin alone, three replicate lineages, 21-26 day period",no or very little increase; also recorded: no resistance to pp296 was observed
same,Amount needed to suppress DAP resistance,"MRSA strain MW2; with daptomycin, 1/16th the MIC for pp296 alone",0.125 µg/mL
same,Amount needed to suppress development of VAN resistance,"MRSA strain MW2; with vancomycin, 1/8th the MIC for pp296 alone",0.25 µg/mL

# Source: patent US20210032294A1, “MODIFIED PlySs2 LYSINS AND USES THEREOF” (CONTRAFECT CORPORATION, priority 2018, published 2021)
